From the nanobody polyreactivity screen of Harvey et al. (2022)

Test: yeast display, Sf9 membrane polyspecificity reagent, FACS + sequencing; frameworks hold sequencing errors
In short: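 A nanobody's polyreactivity label depends on the gate it was sorted from. Yeast display cells were stained with 10% biotinylated, detergent-solubilized Sf9 membrane reagent for 1 hour at 4 °C, enriched on streptavidin microbeads and sorted by FACS. The low and high (top ~1%) gates were set on anti-HA fluorescence for expression and streptavidin fluorescence for reagent binding.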

| Sequence | polyreactivity (PSR sort gate) |
| --- | --- |
| QVQLVESGGGLVQAGGSLRLSCAASGSTIGYYAMGWYRQAPGTERELVAAITRSGGSTSYADSVKGRFTISRDNAKNTVYLQMNSLKPEDTAVYYCAARFYRPYYARQGYNYWGQGTQVTVSS | high polyreactivity |
| QVQLVESGGGLVQAGGSLRLSCAASGRTFSGYAMGWYRQAPGKERELVAAITSSGSSTYYADSVKGRFTISRDKAKNTVYLQMNCLKPEDTAVYYCAATPQAHSERYYSQRKYDYWGQGTQVTVSS | low polyreactivity |
| QVQLVESGGGLVQAGGSLRLSCAASGSIFIYYAMGWYRQAPGKERELVASISSSGSRTYYADSVKGRFTISRDNAKNTVYLQMNSLKPEETAVYYCAARYAIPRNYPQYNYWGQGTQVTVSS | high polyreactivity |
| QVQLVESGGGLVQAGGSLRLSCAASGRTFSGNAMGWYRQAPGKERELVAGISTSGGSTYYADSVKGRFTISRDNANNTVYVQMNSLKPEDTAVYYCAADRPGSFTTMDYWGQGSQVTVSS | high polyreactivity |
| QVQLVESGGGLVQAGGSLRLSCAASGFIFGVYAMGWYRQAPGKERELVAAISRSGGSTYYADSVKGRFTISRDNAKNTVYLQMNSLKPEDTAVYYCAVRGSWYSEHNYWGQGTQVTVSS | high polyreactivity |
| QVQLVESGGGLVQAGGSLRLSCAASGSIFRGYAMGWYRQAPGKERELVAAITSSGGSTNYADSVKGRFTISRDNAKNTVYLQMNSLKPEDTAVYYCAKAPGLWHLIQRMDYWGQGTQVTVSS | low polyreactivity |
| QVQLVESGGGLVQAGGSLRLSCAASGSIFRGNAMGWYRQAPGKERELVAAISKSGGSTYYADSVKGRFTISRDNAKNTVNLQMNSLKPEDTAVYYCAARTTYLYGMYYWGQGTQVTVSS | low polyreactivity |
| QVQLEESGGGLVQAGGSLRLSCAASGFTFERNAMGWYRQAPGKERELVAAISWSGGSTYYADSVKGRFTISRDNAKNTVYLQMNSLKPEDTAVYYCAAYQWGYWYGYRMDYWGQGTQVTVSS | high polyreactivity |
| QVQLVESCGGLVQAGGSHRLSCDASGRIFTGYAMGWYRQAPGKERELVAAISWGGGRTYYADSVKGRFTISRDNAKNTVYLQMNSLKPEDTADYYCNRAAGGRSTPYYYWGQGTQVTVSS | high polyreactivity |
| QVQLVESGGGLVQAGGSLRLSCAASGIIFAWYAMGWYRQAPGKERELVAGISQSGGRTYYADSVKGRFTISRDNAKNSVYLQMNSLKPEDTAVYYCAAQWYYSPYVSGDYWGQGTQVTVSS | high polyreactivity |
| QVQLVESGGGFVQAGGSLRFSCAAYGSTFNQYAMGWYRQAPGKEREFVASITFSGGRTYYADSVQGRFTLSRDNEQNTVYLQMNSLKTEDPAVSYCNAVGYTPRKPSKFDYRGQGTQVTVSS | low polyreactivity |
| QVQLVESGGGLVQAGGSLRLTCAASGRTFPRYAMGWYRQAPGKERELVAAINSGGSTYYADSVKGRFTISRDNAKNSVYLQMNSLKPEDTAVYYCAAEGYTLGDGVYWIGPYDYWGQGTQLTVSS | high polyreactivity |
| QVQIVESGGGLVQAGGSLRLSCAASGLIIPFYAMGWYRQAPGKERELVAAISWSAGSTYYADSVKGRFTISRDNAKNTVYLQMNSLKPEDTAGYYCAATAYYYYDYDYWGQGTQVTVSS | low polyreactivity |
| QVQLVESGGGLVQAGGSLRLSCAASGSTFGFYAMGWYRQAPGKERELVAAISGRGGSTYYADSVKGRFTISRDNAKNTVYLQMNSLKPEDTAVYYCNADWQDDLAGYDVDYWGQGTQVTVSS | low polyreactivity |
| QVQLVESGGGLVQAGGSLRLSCADSGSTFGYYAMGSYRQAPGKERELVAAITSTGRTKYADSVKGRVTISRDNAKNTVNLQMNSLKPEDTAVYYCAADIWGQGTQVTVSS | high polyreactivity |
| QVQLVESGGGLVQAGGSLRLSCAASGRTFLYNALGWYRQAPGKERELVAAISWSGGSTYYADSVKGRFTISRDNAKNTVYLQMNSLKPEDTAVYYCAATGRRSGFFYWGQCTQVTVSS | high polyreactivity |
| QVHLVESGGGLVQAGGSLRLSCAASGIIFPSYVMGWYRQAPGKEWELVARISARGGRTYYADSVKGRFTISRDNAKNTVYLQMNSLKPEDTAVYYCAARWGITTWYDYWGQGTQVTVSS | high polyreactivity |
| QVQLVESGGGLVQAGGRLRLSCAASGFIFSNYAMGWYRQAPGKERELVAAISKSGGGTSYADSVKGRFTISRDTAMNTVYLQMNSLKPEDPAGYYCAARVRQIRVDYWGQGTQVTVSS | high polyreactivity |
| QVQLVEAGGGFVQAGGSLRLSCAASGFTFDYYAMGSYRQAHGKERELVAAITLNGGSTYYADSVKGRFTISRDNAKNTVYLQMNSLKPEDPAVYYCAADGSGYYDWYYYWGHGTQVTVSS | low polyreactivity |
| QVQLVESGGGLVQAGGSLRLSCAASGRTIGPYVMGWYRQAPGKERELVAAITYIGDRTYYADSVKGRFTISRDNAKNTVYLQMNSLKPEDTAVYYCNADFFSRWGYRYMDYWGQGTQVTVSS | low polyreactivity |
| QVQLVESGGGLGQAGGSLRLSCAASGSIFTQYAMGWFRPAPGKERELVATISKSSGSTYYADSVKGRFTNSRDNAKNTVYLQMNSLKPEDTAVYDCAARYTRAYPYYYWGQGTQVTVSS | high polyreactivity |
| QVQLVESGGGLVQAGGSLRLSCAASGRTFYSYAMGWYRQAPGKERELVAAISGRGGRTYYADSVKGRFTISRDNAKNTVYLQMNSLKPEDTAVYYCAKGGYAIRYYGFDYWGQGTQVTVSS | high polyreactivity |

| Sequence | polyreactivity (PSR sort gate) |
| --- | --- |
| QVQLVESGGGLVQAGGSLRLSFAASGSTFDNYAMGWYRQAPGKERELVAAIRRGGSTYYADSVKGRFTISRDNAKNTVYLQMNSLKPEDTAVYYCNAPITRFEGYFYWGQGTQVTVSS | high polyreactivity |
| QVKLVESGGGLVQAGGSLRLSCAASGSIFLGNAMGWYRQAPGKERELVATISSSDGSTDYADSVKGRFTISRDNAKNTVYLQMNSLKPEDTEVYYCNADYSYGTTLDYWGQGSQVTVSS | low polyreactivity |
| QVQLVESGGGLVQAGGSLRLSCAASGGTFYRYAMGWYRQAPGKERELVAAISSNGGSTYYADSVKGRFTISRDNAKNTVYLQMNSLKPEDTAVYYCAAARDSIVYGQYDYWGQGTQVTVSS | low polyreactivity |
| QVQLVESGGGLVQAGGSLRISCAASGFTVWGYAMGWYRQAPGKERELVAGITTRGGSTYYADSVKGRFTISRDNAKNTVYLQMNSLKPEDTAVYYCNVVSSTRTYRYDYWGQGTQVTVSS | high polyreactivity |
| QVQLVESGGGLVHAGGSLRLSCAASGIIFGVYAMGWYRQAPGKERELVAAISWSGGSTYYADSVKGRFTISRDNAKNNVYLQMNSLKPEDTAVYYCAADAYPHEDYYWGQGNQVTVSS | high polyreactivity |
| QVQLEESRGGLVQAGGSLRLSCAASGRIFPVYVMGWDRQAPGKERELVAAINYNGGSTTDADSVKGRFTISRDNAKNTVDLQMNSLKPEDTAVYYCAKVGVLGYYTYYYWGQGIQVTVSS | low polyreactivity |
| QVQLVESGGGLVQAGGSLRLSCAASGFIYPYYAMGCYIQAPGKETELVAGISKSGGRTTYADSVKGRFTISRDNAKNTVYLQMNSLKPEDTAVYYCAAVYRAFPIYEDDYWGQGTQVTVSS | high polyreactivity |
| QVQLVESGGGLVQAGGSLRLSCAASGRTFYTNGMGWYRQAPGKEREFVAGITYRGGGTYYADSVKGRFTISRDNAKNTVYLQMNSLKPEDTAVYYCNTRWILGRRFYYWGQGTQVTVSS | high polyreactivity |
| QVQHVESGGGLVQEGGSLRLSCAASARTFPFYAMGWYRQATGKERELVAAITRSDDSPYYADSVKGRFTFSRDNAKNTVYVQMHSLKPEDIAVYYCAADVEGLTVESHVYRVGFDYCGQGTQVTVSS | low polyreactivity |
| QVQLVESGGGLVQAGGSLRLSCAASGSIFIGYAMGWYRQAHGKERELVAAITSGGSTYADSVKGRFTISRDNAKNPVYLQMNSLKPEDSAVYYCAARFFLVTLDYWGQGTQVTVSS | low polyreactivity |
| QVQLVDSGGGLVQAGGSLRLSCAASGRIFSENAMVWYRQSRGKERELVAAITANGGDTYYADSVKGRFTISRDNAKNTVYLQMNSLKPEDTAVYYCAAETGGLGGDYWGQGTQVTVSS | low polyreactivity |
| QVQLVESGGGLVQAGGSLRLSCAASGSTFAYYAMGWYRPAPGKERELVAVISVRGGSTYYAESVKGRFTISRDNAKNTVYLQMNSLKPEDTAVYYCAADTFAGYYYWGQGTQVTVSS | high polyreactivity |
| QFQLVESGGGLVQAGGSLRLSCDASGSIFSYYAMGWYRQAPGKERELVAAISQSGGTTYYADSLKGRFTISRDNEKNTVYLQMNSLKPEDTAVYYCAARAQSSFDTQYYYWGQGTQVTVSS | low polyreactivity |
| QVHLVESGGGLVQAGGSLRLSCAASGRTFRDYTMGWYRQAPGKEREFVAAISSTGSTNYADSVKGRFTISRDNAKNTVYLQMNSLKPEDTAVYYCAADGRRWLGWYGYYYWGQGTQVTVSS | low polyreactivity |
| QVQLVESGGGLVQAGGSLRLSCAASGGISLRYAMGWYRQAPGKERELVAVIDFSGASTYYADSVKGRFTISRDNAKNTVYLQMNSLKPEDTAVYYCAADSHYQDDFRIQYDYWGQGTQVTVSS | low polyreactivity |
| QVQLVESGGRLVQAGRSLRLSCAASGINFYGYAMGWYRQAPGKERELVAAITSYDGSTYYADSVKGRFTISRDNAKNTVYLQMNSLKPEDTAVYYCAAYRYGSRGGYWGQGTQVTVSS | high polyreactivity |
| QVQLVESGGGLVQAGGSLRLSCADSGRTFYSYAMGWYRQAPGKERELVAAISASGGRTYYADSVKGRFTISRDNAKNTVYLQMNSLKPEDTAVYYCAAYVSGYRWGYDYWGQGTQVTVSS | high polyreactivity |
| QVQLVESGGGLVQAGGSLRLSCAASGSTFQYYAMGWYRQAPGKERELVAAISSGGSTYYADSVKGRFTISRDIAKNTVYLQMNSLKPEDTAVYYCAAYEYDGDYGYCGQGTQVTVSS | high polyreactivity |
| QVQLVESGGGLVQAGGSLRLSCAASGRIFGYYAMGWYRQAPGKERELVAAINWRGGNTNYADSVKGRFTISRDNAKNTVYLQMNSLKPEDTSVYYCNAQVLVRPIQGEYGYWGQGTQVTVSS | low polyreactivity |
| QVQLGESGGGLVQAGGSLRLSCAASGIILHGYAMGWYRPAPGKEREFVATITLSGSSTYYADSVKGRFTISRDNAKNTVYLQMNSRKAEDTAVYYSAARTWVIVYGLQYDYWGHGTQVTVSS | high polyreactivity |
| QVQLVESGGGLVQAGGSLRLSCAASGRIFDNNAMGWYRQAPGKERELVAAIDWRGGSTDYADSVKGRFTISRDNAKNNVYLHMNSLKQEDTAVYYCVAGHVRYWHGYSYDYWGQGTQVTVSS | low polyreactivity |
